In paper PMC10516938, “Conformational dynamics of cohesin/Scc2 loading complex are regulated by Smc3 acetylation and ATP binding” (Nature Communications, 2023):
Substitutions are numbered along the chain they refer to.

How the values were obtained:
Smc3 S72C E1155Q = molecular target: T1, Smc3 S72C E1155Q (S. cerevisiae, UniProt P47037 1-1230, S72C | E1155Q); assay: cross-linking; in vivo BMOE cross-link of cysteine pairs in yeast cells arrested in late G1 by non-degradable Sic1(9m); Scc1-PK immunoprecipitated, western blot, band intensities quantified; settings: partners not purified
T1 construct: Smc3, S. cerevisiae; also called EQ mutant version of Smc3^S72C; source: S. cerevisiae W303, ectopically expressed, late G1 arrested cells, whole-cell extract
T1 sequence (looked up): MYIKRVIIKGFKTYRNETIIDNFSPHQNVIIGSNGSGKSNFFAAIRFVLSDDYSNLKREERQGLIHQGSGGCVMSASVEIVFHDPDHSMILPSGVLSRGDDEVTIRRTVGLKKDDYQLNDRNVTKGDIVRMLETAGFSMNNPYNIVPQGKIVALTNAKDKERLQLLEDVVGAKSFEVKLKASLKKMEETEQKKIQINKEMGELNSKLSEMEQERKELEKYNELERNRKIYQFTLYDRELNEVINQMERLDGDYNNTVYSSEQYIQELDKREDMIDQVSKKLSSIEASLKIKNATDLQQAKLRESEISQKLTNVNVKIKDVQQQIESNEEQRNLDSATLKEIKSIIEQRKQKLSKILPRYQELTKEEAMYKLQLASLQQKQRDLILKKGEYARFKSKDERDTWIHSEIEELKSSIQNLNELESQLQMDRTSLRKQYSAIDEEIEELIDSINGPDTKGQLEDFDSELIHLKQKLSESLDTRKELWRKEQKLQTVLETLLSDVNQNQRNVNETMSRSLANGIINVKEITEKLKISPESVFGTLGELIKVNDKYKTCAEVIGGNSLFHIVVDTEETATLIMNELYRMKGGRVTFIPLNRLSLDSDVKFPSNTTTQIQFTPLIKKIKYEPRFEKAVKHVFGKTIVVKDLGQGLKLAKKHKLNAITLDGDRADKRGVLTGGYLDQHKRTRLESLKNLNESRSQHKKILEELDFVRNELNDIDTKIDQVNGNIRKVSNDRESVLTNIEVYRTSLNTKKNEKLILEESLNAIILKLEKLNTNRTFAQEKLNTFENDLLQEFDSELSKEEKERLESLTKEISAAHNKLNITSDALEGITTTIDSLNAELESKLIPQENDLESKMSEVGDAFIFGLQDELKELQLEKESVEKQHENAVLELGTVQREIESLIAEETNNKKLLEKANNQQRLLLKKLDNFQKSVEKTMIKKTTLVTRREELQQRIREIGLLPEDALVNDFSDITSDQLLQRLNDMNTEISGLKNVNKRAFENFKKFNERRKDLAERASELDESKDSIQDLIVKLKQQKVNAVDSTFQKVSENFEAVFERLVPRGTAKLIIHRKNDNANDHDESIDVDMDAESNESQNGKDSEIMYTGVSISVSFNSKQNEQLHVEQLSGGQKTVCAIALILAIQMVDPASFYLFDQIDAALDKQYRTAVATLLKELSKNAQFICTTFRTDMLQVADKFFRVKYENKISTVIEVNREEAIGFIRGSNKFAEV

Smc3^QQ S72C = molecular target: T2, Smc3^QQ S72C (S. cerevisiae, UniProt P47037 1-1230, S72C | K112Q | K113Q); assay: as above; settings: partners not purified
T2 construct: Smc3, S. cerevisiae; source: S. cerevisiae W303, late G1 arrested cells, whole-cell extract
T2 sequence (looked up): T1 sequence (looked up) with K112Q, K113Q, Q1155E

fold change of the crosslink against wild-type Smc3 (S72C) (Smc3 S72C E1155Q): ~2 fold
crosslinking efficiency relative to wild type (Smc3^QQ S72C): ~10%
B1: Scc2 E819C (natural protein, S. cerevisiae, UniProt Q04002 1-1493, looked up)
chain: MSYPGKDKNIPGRIIEALEDLPLSYLVPKDGLAALVNAPMRVSLPFDKTIFTSADDGRDVNINVLGTANSTTSSIKNEAEKERLVFKRPSNFTSSANSVDYVPTNFLEGLSPLAQSVLSTHKGLNDSINIEKKSEIVSRPEAKHKLESVTSNAGNLSFNDNSSNKKTKTSTGVTMTQANLAEQYLNDLKNILDIVGFDQNSAEIGNIEYWLQLPNKKFVLTTNCLTKLQMTIKNITDNPQLSNSIEITWLLRLLDVMVCNIKFSKSSLKMGLDDSMLRYIALLSTIVLFNIFLLGKNDSNLHRESYIMEPVNFLSDLIESLKILTIEYGSLKIEFDTFQEALELLPKYIRNGPFLDDNVTAKLVYIFSDLLMNNDIEATTNIQFQSFWDNVKRISSDILVSLFGSFDQQRGFIIEELLSHIEKLPTKRIQKKLRKVGNQNIYITDFTFTLMSMLENINCYSFCNQMKDIAPENIDLLKNEYKKQEEFLFNIVEHINDTILERFFKNPSALRYVIDNFVQDLLLLISSPQWPVTEKILSSLLKRLLSVYSPSMQVSANIETICLQLIGNIGSTIFDIKCSTRDHEDNNLIKMINYPETLPHFFKSFEECIAYNETIKCRRSATRFLWNLRLGTILILEEYTKDAKEQIITVDNELKKILEQIKDGGLGPELENREADFSTIKLDYFSILHAFELLNLYDPYLKLILSLLAKDKIKLRSTAIKCLSMLASKDKVILSNPMVKETIHRRLNDSSASVKDAILDLVSINSSYFEFYQQINNNYNDDSIMVRKHVLRINEKMYDETNDIVTKVYVIARILMKICDEEDNIIDMARLILLNRWILKVHEVLDQPEKLKEISSSVLLVMSRVAIMNEKCSQLFDLFLNFYLLNKEAHSKEAYDKITHVLTILTDFLVQKIVELNSDDTNEKNSIVDKQNFLNLLAKFADSTVSFLTKDHITALYPYMVSDEKSDFHYYILQVFRCTFEKLANFKQKFLYDLETTLLSRLPKMNVREIDEAMPLIWSVATHRHDTARVAKACSSCLSHLHPYINKANNEEAAIVVDGKLQRLIYLSTGFARFCFPKPSNDKIAFLQEGETLYEHITKCLLVLSKDKITHVIRRVAVKNLTKLCGNHPKLFNSRHVLHLLDKEFQSDQLDIKLVILESLYDLFLLEERKSVRNTGVNSTLSSNSILKKKLLKTNRVEFANDGVCSALATRFLDNILQLCLLRDLKNSLVAIRLLKLILKFGYTNPSHSIPTVIALFASTSQYIRHVAYELLEDLFEKYETLVFSSLSRGVTKAIHYSIHTDEKYYYKHDHFLSLLEKLCGTGKKNGPKFFKVLKRIMQSYLDDITDLTSTNSSVQKSIFVLCTNISNITFVSQYDLVSLLKTIDLTTDRLKEVIMDEIGDNVSSLSVSEEKLSGIILIQLSLQDLGTYLLHLYGLRDDVLLLDIVEESELKNKQLPAKKPDISKFSAQLENIEQYSSNGKLLTYFRKHVKDT
notes: Scc2, S. cerevisiae; source: S. cerevisiae W303, in vivo, whole-cell extract
